Data on two proteins can be found in US20070190603A1 (MIT, published 2007).

This data set deals with the molecule itself. The data set is described as follows: self-assembly into a macroscopic membrane in DMEM; phase-contrast microscopy and Congo Red staining. As to the method: The peptides were initially dissolved in water (5 mg/ml) or in 23% acetonitrile (10 mg/ml). A volume of 5-10 microliters of the dissolved peptides were applied to the DMEM medium, PBS or water. The formation of the membrane was first observed under a phase-contrast microscope and then, by the naked eye after staining with Congo Red.

Consider Ac-AEAEAKAKAEAEAKAK-NH2 (Self-assembling amphiphilic peptide) [EAK16 peptide, Ac-HN-AEAEAKAKAEAEAKAK-CONH2], for which the binding result is “binds”.
In the case of Ac-AEAKAEAEAKAK-NH2 [EAK12 peptide, Ac-HN-AEAKAEAEAKAK-CONH2], the binding result is listed as “binds”.
